Experiment [1] addresses Complement 1q binding protein (C1qBP), recombinant His-tagged, residues 75-282 (human). The experiment is described as follows: dynamic and static light scattering (DLS/SLS); C1qBP at 0.8 mg/ml, 20 mM HEPES pH 7.4, 37°C, with 2.5 mM CaCl2; trimer to dimer of trimers.
Experiment [2] shares this target. Nature of the experiment: SEC-MALS; Superdex 200 10/300 GL, 20 mM Na2HPO4, 20 mM NaCl, pH 6.5; proteins at 2-4 mg/ml alone or CypD:C1qBP mixture at 2:1 molar ratio; eluted complex checked by SDS-PAGE.

“Complement 1q binding protein (C1qBP), recombinant His-tagged, residues 75-282 (natural protein)”: the stoichiometry N – broadly, the number of molecules, sites or subunits per partner or assembly – in experiment [1] was found to be 6; in experiment [2], 3.

As for “Cyclophilin D (CypD), recombinant, residues 44-207 (enzyme)”, in experiment [2], the stoichiometry N (CypD per C1qBP trimer) stood at 1.

The record behind these values is PMC12751049.
